Among the data in patent publication US20110286916A1 are MFI values, retold here.

Assay [1] concerns the target human full-length Notch1 with C-terminal FLAG tag, stably expressed on 293 FlpIn (TREx) cells (human) (UniProt P46531). Briefly: FACS, 293 FlpIn (TREx) cells expressing Notch1. For orientation: A flow cytometer gives signals particle by particle.
The target of assay [2] is endogenous human Notch1 on 293 FlpIn (TREx) parental, LS-1034 and BxPC3 cells (human) (UniProt P46531). The assay is described as follows: FACS, LS-1034 and BxPC3 cells.

As to IgG isotype control antibody, the MFI in assay [1] and in assay [2] was 9 in each case.
